Legend:
[1] = target: whole LFA-1 in which the α subunit contains an I-domain in the low affinity locked closed state, on cells (LA cells) (human) (UniProt P05107); assay: phage ELISA, LA form of LFA-1, with Mg2+
[2] = target: whole LFA-1 in which the α subunit contains an I-domain in the low affinity locked closed state, on cells (LA cells) (human) (UniProt P05107); assay: phage ELISA, LA form of LFA-1, without Mg2+
[3] = target: human wild-type LFA-1 on cells (human) (UniProt P20701); assay: inhibition of ICAM binding to human PBMCs; average of four experiments
human wild-type LFA-1 on cells (human), sequence (P20701 other isoform, or with tags, fused parts or gaps limits assumed, chain 1 of 2): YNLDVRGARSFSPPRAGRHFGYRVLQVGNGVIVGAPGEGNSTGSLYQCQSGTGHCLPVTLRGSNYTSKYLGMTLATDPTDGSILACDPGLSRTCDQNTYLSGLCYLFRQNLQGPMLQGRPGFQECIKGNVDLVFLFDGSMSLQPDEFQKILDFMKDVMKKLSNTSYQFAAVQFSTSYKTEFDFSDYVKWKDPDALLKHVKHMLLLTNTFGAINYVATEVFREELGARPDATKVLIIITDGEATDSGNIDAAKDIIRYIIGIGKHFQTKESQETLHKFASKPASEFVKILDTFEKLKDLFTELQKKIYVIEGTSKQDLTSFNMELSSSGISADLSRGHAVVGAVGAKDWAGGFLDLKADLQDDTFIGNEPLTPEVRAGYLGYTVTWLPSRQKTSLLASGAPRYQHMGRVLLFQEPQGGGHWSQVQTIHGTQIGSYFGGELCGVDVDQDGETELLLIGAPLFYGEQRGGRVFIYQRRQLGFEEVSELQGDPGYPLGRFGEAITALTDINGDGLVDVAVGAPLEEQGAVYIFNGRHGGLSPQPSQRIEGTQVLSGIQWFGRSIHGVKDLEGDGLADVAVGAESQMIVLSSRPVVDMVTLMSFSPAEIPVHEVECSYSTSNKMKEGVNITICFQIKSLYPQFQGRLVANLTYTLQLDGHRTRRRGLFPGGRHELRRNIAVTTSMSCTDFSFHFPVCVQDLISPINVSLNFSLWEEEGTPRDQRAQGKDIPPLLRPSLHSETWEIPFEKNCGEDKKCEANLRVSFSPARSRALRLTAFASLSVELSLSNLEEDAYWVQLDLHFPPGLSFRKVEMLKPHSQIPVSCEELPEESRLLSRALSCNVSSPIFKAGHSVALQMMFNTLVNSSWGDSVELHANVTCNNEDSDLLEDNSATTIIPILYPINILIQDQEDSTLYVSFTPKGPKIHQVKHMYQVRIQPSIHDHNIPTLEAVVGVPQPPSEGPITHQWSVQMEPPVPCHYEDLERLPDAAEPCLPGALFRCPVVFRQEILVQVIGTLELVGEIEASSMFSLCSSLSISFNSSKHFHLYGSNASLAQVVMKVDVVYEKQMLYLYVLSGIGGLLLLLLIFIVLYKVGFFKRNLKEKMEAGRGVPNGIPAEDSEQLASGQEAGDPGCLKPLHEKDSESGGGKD
human wild-type LFA-1 on cells (human), sequence (chain, as listed by the source limits assumed, chain 2 of 2): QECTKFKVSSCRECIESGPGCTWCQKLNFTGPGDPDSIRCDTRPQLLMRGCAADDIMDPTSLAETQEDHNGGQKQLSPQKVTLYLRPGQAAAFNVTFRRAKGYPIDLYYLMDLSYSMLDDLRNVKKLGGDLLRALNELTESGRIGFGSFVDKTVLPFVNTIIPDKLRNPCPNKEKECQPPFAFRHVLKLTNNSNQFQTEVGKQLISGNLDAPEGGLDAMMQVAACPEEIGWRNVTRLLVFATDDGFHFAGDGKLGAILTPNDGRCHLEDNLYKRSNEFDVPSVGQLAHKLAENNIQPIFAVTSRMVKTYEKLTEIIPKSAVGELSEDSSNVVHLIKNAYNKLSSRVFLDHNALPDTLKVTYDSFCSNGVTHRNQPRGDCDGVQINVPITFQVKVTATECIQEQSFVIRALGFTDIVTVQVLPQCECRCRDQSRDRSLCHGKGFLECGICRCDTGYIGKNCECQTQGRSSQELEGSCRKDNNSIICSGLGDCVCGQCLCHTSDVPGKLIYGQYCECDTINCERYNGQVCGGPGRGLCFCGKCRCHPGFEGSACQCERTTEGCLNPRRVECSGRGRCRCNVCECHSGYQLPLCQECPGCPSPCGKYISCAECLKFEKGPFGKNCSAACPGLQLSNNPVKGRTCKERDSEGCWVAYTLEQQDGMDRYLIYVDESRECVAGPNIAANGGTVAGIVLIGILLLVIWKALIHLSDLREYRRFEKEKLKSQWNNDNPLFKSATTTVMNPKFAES

[4] = target: whole LFA-1 in which the α subunit contains an I-domain in the high affinity locked open state, on cells (HA cells) (human) (UniProt P05107); assay: inhibition of ICAM binding to HA cells, Guava analysis; third experiment
[5] = target: whole LFA-1 in which the α subunit contains an I-domain in the high affinity locked open state, on cells (HA cells) (human) (UniProt P05107); assay: inhibition of ICAM binding to HA cells, Guava analysis; fourth experiment
[6] = target: whole LFA-1 in which the α subunit contains an I-domain in the high affinity locked open state, on cells (HA cells) (human) (UniProt P05107); assay: inhibition of ICAM binding to HA cells, Guava analysis; second experiment
[7] = target: whole LFA-1 in which the α subunit contains an I-domain in the high affinity locked open state, on cells (HA cells) (human) (UniProt P05107); assay: inhibition of ICAM binding to HA cells, Guava analysis; first experiment

Row | Substance | ELISA signal (arbitrary units) [1] | ELISA signal (arbitrary units) [2] | IC50 [3] [nM] | IC50 [4] [nM] | IC50 [5] [nM] | IC50 [6] [nM] | IC50 [7] [nM]
1 | Control #1 (a phage that binds to a different target) | 0.13 | 0.07 | – | – | – | – | –
2 | Control #2 (another protein that binds to a different target) | 0.14 | 0.07 | – | – | – | – | –
3 | MHM24 IgG (antibody) | – | – | 0.33 | 0.59 | 2.4 | 1.8 | 0.24

Reference: patent US20080069777A1
